Molecular target: the molecule itself
Experiment: negative-stain electron microscopy; 12 ng/ul His-PHGDH or 15 ng/ul untagged PHGDH with 0.5 mM NADH, 2% uranyl acetate; reference-free alignment, class averages, particle areas compared

B1: recombinant untagged PHGDH (D-3-phosphoglycerate dehydrogenase) (enzyme, human, UniProt O43175 1-533, looked up)
chain: MAFANLRKVLISDSLDPCCRKILQDGGLQVVEKQNLSKEELIAELQDCEGLIVRSATKVTADVINAAEKLQVVGRAGTGVDNVDLEAATRKGILVMNTPNGNSLSAAELTCGMIMCLARQIPQATASMKDGKWERKKFMGTELNGKTLGILGLGRIGREVATRMQSFGMKTIGYDPIISPEVSASFGVQQLPLEEIWPLCDFITVHTPLLPSTTGLLNDNTFAQCKKGVRVVNCARGGIVDEGALLRALQSGQCAGAALDVFTEEPPRDRALVDHENVISCPHLGASTKEAQSRCGEEIAVQFVDMVKGKSLTGVVNAQALTSAFSPHTKPWIGLAEALGTLMRAWAGSPKGTIQVITQGTSLKNAGNCLSPAVIVGLLKEASKQADVNLVNAKLLVKEAGLNVTTSHSPAAPGEQGFGECLLAVALAGAPYQAVGLVQGTTPVLQGLNGAVFRPEVPLRRDLPLLLFRTQTSDPAMLPTMIGLLAEAGVRLLSYQTSLVSDGETWHVMGISSLLPSLEAWKQHVTEAFQFHF
notes: D-3-phosphoglycerate dehydrogenase (PHGDH), human, expressed from pET28a PHGDH without a tag; Oligomer size is left open (dimer, trimer, or tetramer); also called rPHGDH; source: E. coli BL21, purified (Cibacron Blue F3GA, MonoQ, Sephacryl S-200)
binding result: binds

Source: paper PMC4414297, “An epitope tag alters phosphoglycerate dehydrogenase structure and impairs ability to support cell proliferation” (Cancer & Metabolism, 2015)
